These results are taken from the RNAGym collection of RNA variant scans (doi:10.7554/elife.80360).

To fix the notation:
B1: CPEB3 Ribozyme (parent)
chain: GGGGGCCACAGCAGAAGCGUUCACGUCGCGGCCCCUGUCAGAUUCUGGUGAAUCUGCGAAUUCUGCUGU

In this series the parent is B1. Kind of series: self-cleavage, relative activity (ratio to wild type); higher = more cleavage; co-transcriptional.
G56A G65U: the self-cleavage was found to be 0.627.

G56A G65C: the self-cleavage was 0.508. The value for G56A G65A was 0.777; that for C57U A60C was 0.372; that for C57U A60U was 0.298.

With C57U A60G, the self-cleavage came to 0.39. Next, G58C G68A: 1; G58C G68C: 0.963; G58C G68U: 1.02. A59C C66A: the self-cleavage turned out to be 0.365.

For A59C C66G, the self-cleavage came out at 0.441.

In the case of C57A C66U, the self-cleavage came out at 0.267. Next, C57A C66A: 0.37; C57A C66G: 0.373; C57U G58U: 0.42. With C57U G58C, the self-cleavage was 0.451.

As to C57U G58A, the self-cleavage amounted to 0.289. Next, G58A A59G: 0.949; G58A A59C: 0.558; G58A A59U: 0.592. U55G G56A: the self-cleavage is 0.963. In the case of C57A U61C, the self-cleavage was 0.273. Turning to G56A U67C, the self-cleavage stood at 0.913. For the variant G56A U67G, the self-cleavage was found to be 0.995.

For the variant G56A U67A, the self-cleavage was determined as 0.927. Regarding A59G U67C, the self-cleavage was 0.976. For A59G U67A, the self-cleavage was found to be 0.991. For the variant A59G U67G, the self-cleavage stood at 1.03.

Take U55G C66A: the self-cleavage came to 0.437. Next, U55G C66U: 0.681. Next, G56A G58U: 0.994. In the case of G56A U61A, the self-cleavage is 0.824. The value for A60C G68U was 0.395. The value for A60C G68C was 0.392; that for G58A G65A was 0.901. For G56U C57G, the self-cleavage was determined as 0.384. The value for A60G U61A was 0.632. Next, A60G U61G: 0.533; G56U U61A: 0.752; U55G U67A: 0.884. The value for U55G U67C was 0.612; that for A60C C66U was 0.412; that for A60C C66G was 0.456.

For the variant C57A A59U, the self-cleavage is 0.46. Next, C57A A59G: 0.426; U55G G65C: 0.417. The value for U55G G65U was 0.307; that for U55G G65A was 0.408. The value for G56A C66G was 0.744; that for G56A C66U was 0.929. Consider G56U A59G, for which the self-cleavage was 0.909. Take A59U A60U: the self-cleavage was 0.312. As to A59U A60G, the self-cleavage worked out at 0.56. The value for A59U A60C was 0.343; that for G56C U67G was 0.758. With G56C U67C, the self-cleavage turned out to be 0.878. Turning to G56C U67A, the self-cleavage was found to be 0.941. For A59U C63U, the self-cleavage turned out to be 0.734. Regarding A59U C63G, the self-cleavage was 0.545. Turning to G56A U64A, the self-cleavage was 0.798.

Consider G58C U62A, for which the self-cleavage worked out at 0.918. Next, G58C U62C: 0.902; A60C U62G: 0.429; G56A C57G: 0.306. G56A C57U: the self-cleavage was 0.308. G56A C57A: the self-cleavage amounted to 0.413. Next, U55G G58A: 0.644; U55G G58C: 0.964. The value for A60G C63U was 0.867; that for A60G C63G was 0.545; that for A60G C63A was 0.429. G58U U62G: the self-cleavage was determined as 1.01. Regarding G58U U62C, the self-cleavage was found to be 0.953. In the case of G58U U62A, the self-cleavage worked out at 0.958. The value for G58C U61G was 0.912. Next, G58C U61A: 0.877; C57G U64A: 0.349; C57G U64G: 0.394. For the variant C57G U64C, the self-cleavage turned out to be 0.38. The value for G56C C57G was 0.343.

Regarding G56C C57U, the self-cleavage is 0.483. The value for G56C C57A was 0.3; that for C57A A60C was 0.264. C57A A60U: the self-cleavage was 0.415. Next, G56C A59U: 0.392; G58C U69G: 1.05. The value for G58C U69A was 0.998. Next, A59C U61C: 0.446; G58U C66A: 0.928; G58U C66U: 1.02. Consider C57G G65A, for which the self-cleavage was found to be 0.37. The value for C57G G65C was 0.428; that for C57G G65U was 0.254. As to C57U C63G, the self-cleavage is 0.397. As for C57U C63A, the self-cleavage amounted to 0.438.

With A59G A60G, the self-cleavage was 0.533. Consider A59G A60U, for which the self-cleavage is 0.352. The value for A60C U64G was 0.333; that for A60C U64A was 0.267; that for A60C U61G was 0.3. The value for A60C U61A was 0.472. Next, A59C U69C: 0.934.

As for A59C U69G, the self-cleavage was determined as 0.824.

In the case of A59C U69A, the self-cleavage stood at 0.813.

As to G56A A59U, the self-cleavage was determined as 0.735. The value for G56A A59G was 0.649; that for C57G U69C was 0.451.

Turning to A59G G68A, the self-cleavage is 1.

For the variant A59G G68U, the self-cleavage is 1.02. The value for C57G A60G was 0.294; that for C57G A60U was 0.291; that for G56U C63U was 0.842. Next, G56U C63G: 0.485. As for G56U C63A, the self-cleavage stood at 0.51. For A60C U67A, the self-cleavage came out at 0.358. The value for A60C U67G was 0.37. Next, A60C U67C: 0.313; U55G U61G: 0.547; U55G U61C: 0.293. Take G58C U67A: the self-cleavage was found to be 0.988. Next, G58C U67C: 0.961; A60G C66A: 0.582.

For the variant A60G C66U, the self-cleavage stood at 0.818. Take A60G C66G: the self-cleavage turned out to be 0.559.

With C57U C66A, the self-cleavage amounted to 0.316. The value for C57U C66G was 0.317. Turning to G56C G65U, the self-cleavage amounted to 0.512. Regarding A60G G65U, the self-cleavage came out at 0.412. The value for A60G G65A was 0.373; that for A59U U64G was 0.729. As to A59U U64C, the self-cleavage is 0.558.

In the case of A59U U64A, the self-cleavage came to 0.459.

Turning to G58A U67C, the self-cleavage was found to be 0.993.

As for G58A U67A, the self-cleavage is 0.968. Next, G56A C63U: 0.943; G56A C63G: 0.667; C57U U61C: 0.371. Next, C57U U61G: 0.463. The value for C57A U69G was 0.455. Take C57A U69A: the self-cleavage came to 0.377. On to U55G G68A, for which the self-cleavage stood at 0.951. Turning to U55G G68C, the self-cleavage is 0.972. Take G58C C63A: the self-cleavage stood at 0.906.

Consider G58C C63U, for which the self-cleavage came out at 0.997. Next, G58C C63G: 0.823; G58U A60U: 0.331. The value for G58U A60G was 0.977.

With C57U U67C, the self-cleavage is 0.465.

Consider C57U U67G, for which the self-cleavage is 0.509. The value for C57U U67A was 0.365; that for A59G C66A was 0.779.

A59G C66G: the self-cleavage was 0.893. The value for A60G U67C was 0.747; that for A60G U67G was 0.902; that for G56C U64C was 0.637.

G56C U64A: the self-cleavage was determined as 0.504. With G56U U62A, the self-cleavage is 0.654.

For G56U U62G, the self-cleavage is 0.563.

Regarding G56U U62C, the self-cleavage came to 0.67.

As for G58A C66U, the self-cleavage is 0.938. The value for G58A C66A was 0.81; that for G58A C66G was 0.881. For the variant C57U G68A, the self-cleavage came to 0.395.

In the case of C57U G68U, the self-cleavage is 0.416. The value for C57U G65C was 0.374; that for C57U G65A was 0.357.

Take C57G U62A: the self-cleavage was found to be 0.333.
